Consider four variants from IntAct's records for PubMed 26598606.

The chains are these.
B1: Protein OPY2 (Saccharomyces cerevisiae), Q06810 (parent)
chain: MSSSSKASASSSLSSTATSSTSATRGSDGCVVCDSTASCPVCASGEYCVMTSLTCDKCPSTYCAKQSDSQLSSLSSSSSSSSSSNSNEKTSLIVGFTVGIVGGAMLIALVALYFINKRYWKPKRQKNKALKLEEASQSYGNEEEYFDDEDDDDEDDEDDGGMRKDESHTLFNTSLVPPTLNVPGNRSSASTTRTRASNILPIAYIPGVTSGLSTDKLQSKLRSSSKRQNAAGDIRSHITLGSSILDGLDDEDDEHNQVLNKDADDNLITAIRAKPKLVQIAEEESDKEIQDLDVIEEQTEADDLSHMAKSEASHGNNDEDDDEEGSFILDLEIPESIRESTQGSRTESPFEDKFEIHDER
partner: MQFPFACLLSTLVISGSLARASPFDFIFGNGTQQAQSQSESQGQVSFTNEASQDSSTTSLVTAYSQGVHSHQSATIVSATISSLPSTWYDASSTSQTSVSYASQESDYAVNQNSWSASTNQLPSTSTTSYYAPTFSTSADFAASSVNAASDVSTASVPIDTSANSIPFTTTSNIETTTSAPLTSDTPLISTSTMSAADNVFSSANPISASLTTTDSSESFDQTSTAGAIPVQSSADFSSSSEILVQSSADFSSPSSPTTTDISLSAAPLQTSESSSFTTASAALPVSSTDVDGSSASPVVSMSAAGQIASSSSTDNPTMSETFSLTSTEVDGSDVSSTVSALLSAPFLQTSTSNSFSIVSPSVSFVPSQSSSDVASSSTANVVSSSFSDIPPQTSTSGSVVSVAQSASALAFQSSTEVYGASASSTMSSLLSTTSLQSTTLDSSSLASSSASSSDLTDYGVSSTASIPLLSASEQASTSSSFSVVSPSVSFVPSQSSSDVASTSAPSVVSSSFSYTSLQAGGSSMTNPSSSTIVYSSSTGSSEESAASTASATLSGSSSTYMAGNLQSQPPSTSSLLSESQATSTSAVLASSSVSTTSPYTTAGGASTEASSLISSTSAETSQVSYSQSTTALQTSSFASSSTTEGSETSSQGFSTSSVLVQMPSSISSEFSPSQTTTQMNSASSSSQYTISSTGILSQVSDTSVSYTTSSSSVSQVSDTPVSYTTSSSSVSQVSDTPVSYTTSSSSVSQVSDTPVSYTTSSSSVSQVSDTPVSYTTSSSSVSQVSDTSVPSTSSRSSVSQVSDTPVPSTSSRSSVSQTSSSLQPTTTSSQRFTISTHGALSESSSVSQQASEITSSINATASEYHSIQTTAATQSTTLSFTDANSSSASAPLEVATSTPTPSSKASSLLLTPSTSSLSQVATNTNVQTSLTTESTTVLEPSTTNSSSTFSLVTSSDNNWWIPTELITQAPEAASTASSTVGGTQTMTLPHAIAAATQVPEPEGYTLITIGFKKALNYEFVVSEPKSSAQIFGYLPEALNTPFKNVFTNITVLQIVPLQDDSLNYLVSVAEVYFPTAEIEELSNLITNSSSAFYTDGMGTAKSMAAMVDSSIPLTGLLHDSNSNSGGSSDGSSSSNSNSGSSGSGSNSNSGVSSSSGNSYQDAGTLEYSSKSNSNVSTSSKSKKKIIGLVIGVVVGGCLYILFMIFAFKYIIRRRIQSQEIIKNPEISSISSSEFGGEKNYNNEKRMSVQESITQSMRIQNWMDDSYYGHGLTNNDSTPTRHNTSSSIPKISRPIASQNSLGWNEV

The variants in the experiment derive from B1. The conditions noted are these: with msb2_yeast MSB2, P32334.
C30A;C42A: the “effect of a mutation on the interaction” value is “disrupting interaction strength”.

In the case of C30A;C55A, the “effect of a mutation on the interaction” value is given as “decreasing interaction strength”.

On to C33A;C39A, for which the “effect of a mutation on the interaction” value is reported as “disrupting interaction strength”.

On to C33A;C58A, for which the “effect of a mutation on the interaction” value is on record as “decreasing interaction strength”.
